Measured values reported in patent publication US20190112365A1 (EISAI R AND D MANAGEMENT, published 2019).
Where “and” joins values, the source holds several entries; their conditions need not be identical. Equal entries are not always repeated. Where two headings read alike, the source gives them in different places. Blank lines part the entries; values can stand above or below the binder they belong to.

Experiments:
[1] = molecular target: T1, Human Tau 2N4R, wild type, recombinant full length (human, UniProt P10636 2-758); experiment: SPR BIAcore, mAb captured by anti-human IgG, Tau flowed, 1:1 Langmuir
T1 construct: Full length 2N4R isoform; monomer in SPR and ELISA; heparin-induced aggregates or seeds in the functional assays; also called Tau441; Tau-441
Procedure: (§1) All experiments were performed using a BIAcore™ T-100 instrument (GE Healthcare). 10 μL anti-human IgG (monoclonal mouse anti-human Fc) from human antibody capture kit (GE Healthcare) was diluted to 25 μL/mL in 200 μL final immobilization buffer (10 mM sodium acetate, pH 5.0). The flow rate was set to 5 μL/min, flowpath 1. Fifty μL N-hydroxysuccinamide (NETS) and 50 μL 1-ethyl-3-(3-dimethylaminopropyl) carbidiimide (EDC) were mixed and injected for 420 sec to activate the CM5 chip surface. The diluted antibody was injected for 360 seconds followed by 1 M ethanolamine for 420 seconds. The flowpath was then switched to flowpath 2. A new EDC/NHS mixture was prepared and the procedure was repeated for flow cell 2. The surface was conditioned by 2 injections of 30 sec using flowpath 1, 2 at 30 μL/min of 3M MgCl₂. For the anti-mouse surface, 10 μL anti-mouse IgG (polyclonal rabbit anti-mouse IgG) from mouse antibody capture kit (GE Healthcare) was diluted to 30 μL/mL in 324 μL final immobilization buffer (10 mM sodium acetate, pH 5.0). The flow rate was set to 5 μL/min, flowpath 3. Fifty μL NHS and 50 μL EDC were mixed and injected for 420 sec to activate the chip surface. The diluted antibody was injected for 420 sec. 1 M ethanolamine was injected for 420 sec. Flow path was switched to flowpath 4. A new EDC/NHS mixture was prepared and the procedure was repeated for flow cell 4. The surface was conditioned by 2 injections of 30 sec using flowpath 3, 4 at 30 μL/min of 10 mM glycine, pH 1.7.
(§2) Binding of humanized and mouse antibodies were analyzed by surface plasmon resonance (BIAcore™) to determine their relative association rates (kₐ), dissociation rates (kd), and equilibrium binding constants (KD). Anti-mouse or anti-human antibodies were immobilized on a CM5 chip and sample mAbs were captured on the chip. 2N4R Tau was flowed over the chip and binding observed. The binding constants kₐ, kd, and KD were determined using a 1:1 Langmuir fitting model.

[2] = molecular target: T1, Human Tau 2N4R, wild type, recombinant …; experiment: as above; remark: listed apart in the source
Procedure: as §1
as §2, with “BIAcore™” for “surface plasmon resonance (BIAcore™)”, “(ka),” for “(kₐ),”, “model. Both 7G6-HCzu12-based mAbs had similar kₐ and kd values (Table 8). However, the kₐ of 7G6-HCzu11 was decreased, though the kd was unaffected. Therefore, human residues in the Vh3 framework impact binding to Tau.” for “model.”

T1 sequence (P10636 other isoform, or with tags, fused parts or gaps limits assumed): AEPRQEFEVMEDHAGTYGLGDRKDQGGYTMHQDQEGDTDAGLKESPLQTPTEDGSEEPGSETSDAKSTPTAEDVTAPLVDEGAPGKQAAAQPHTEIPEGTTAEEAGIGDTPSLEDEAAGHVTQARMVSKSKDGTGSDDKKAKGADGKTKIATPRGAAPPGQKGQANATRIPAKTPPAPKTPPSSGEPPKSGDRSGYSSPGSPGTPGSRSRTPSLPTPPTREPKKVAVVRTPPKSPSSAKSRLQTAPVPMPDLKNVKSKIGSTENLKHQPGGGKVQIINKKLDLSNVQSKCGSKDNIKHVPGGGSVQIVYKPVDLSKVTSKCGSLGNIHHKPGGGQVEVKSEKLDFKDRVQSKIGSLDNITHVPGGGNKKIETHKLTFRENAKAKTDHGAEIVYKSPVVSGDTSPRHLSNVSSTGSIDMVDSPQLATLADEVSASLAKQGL

B1: 7G6-HCzu7-LCzu6 (antibody, human IgG1, kappa, V domains shown)
VH: QVQLVQSGAEVKKPGASVKVSCKASGYTFTTYWITWVRQAPGQGLEWMGDIYPGSSISNYAQKFQGRVTMTVDTSTSTVYMELSSLRSEDTAVYYCAREDGYDAWFAYWGQGTLVTVSS
VL: DVVMTQSPLSLPVTLGQPASISCRSSQSILHSNGNTYLEWYQQRPGQSPRLLISKVSNRFSGVPDRFSGSGSGTDFTLKISRVEAEDVGVYYCFQGSHVPFTFGQGTKLEIKR
notes: humanized, human IgG1 kappa
- Kd [1]: 0.109 nM
- koff [1]: 0.000226 s⁻¹
- kon [1]: 2.08e+06 M⁻¹ s⁻¹

B2: 7G6-HCzu9-LCzu6 (antibody, human IgG1, kappa, V domains shown)
VH: QVQLVQSGAEVKKPGASVKVSCKASGYTFTTYWITWVRQAPGQGLEWMGDIYPGSSICNYAQKFQGRVTMTVDTSTSTVYMELSSLRSEDTAVYYCAREDGYDAWFAYWGQGTLVTVSS
VL: DVVMTQSPLSLPVTLGQPASISCRSSQSILHSNGNTYLEWYQQRPGQSPRLLISKVSNRFSGVPDRFSGSGSGTDFTLKISRVEAEDVGVYYCFQGSHVPFTFGQGTKLEIKR
notes: humanized, human IgG1 kappa
- Kd [1]: 0.0938 nM
- koff [1]: 0.000193 s⁻¹
- kon [1]: 2.06e+06 M⁻¹ s⁻¹

B3: 7G6-HCzu10-LCzu6 (antibody, human IgG1, kappa, V domains shown)
VH: QVQLVQSGAEVKKPGASVKVSCKASGYTFTTYWITWVRQAPGQGLEWMGDIYPGSSICNYAQKFQGRVTMTRDTSTSTVYMELSSLRSEDTAVYYCAREDGYDAWFAYWGQGTLVTVSS
VL: DVVMTQSPLSLPVTLGQPASISCRSSQSILHSNGNTYLEWYQQRPGQSPRLLISKVSNRFSGVPDRFSGSGSGTDFTLKISRVEAEDVGVYYCFQGSHVPFTFGQGTKLEIKR
notes: humanized, human IgG1 kappa
- Kd [1]: 0.108 nM
- koff [1]: 0.000213 s⁻¹
- kon [1]: 1.98e+06 M⁻¹ s⁻¹

B4: 7G6-HCzu17-LCzu12 (antibody, human IgG1, kappa, V domains shown)
VH: EVQLLESGGGLVQPGGSLRLSCAASGYTFTTYWITWVRQAPGKGLEWVSDIYPGSSICNYNEKFKSRFTISVDNSKNTLYLQMNSLRAEDTAVYYCAREDGYDAWFAYWGQGTLVTVSS
VL: DVQMTQSPSSLSASVGDRVTITCRSSQSILHSNGNTYLEWYQQKPGKAPKLLICKVSNRFSGVPSRFSGSGSGTDFTLTISSLQPEDFATYYCFQGSHVPFTFGQGTKLEIKR
notes: humanized, human IgG1 kappa
- Kd [2]: 0.073 nM
- koff [2]: 0.000124 s⁻¹
- kon [2]: 1.7e+06 M⁻¹ s⁻¹

B5: 7G6-HCzu11-LCzu11 (antibody, human IgG1, kappa, V domains shown)
VH: EVQLLESGGGLVQPGGSLRLSCAASGYTFTTYWITWVRQAPGKGLEWVSDIYPGSSICNYNEKFKSRFTISRDNSKNTLYLQMNSLRAEDTAVYYCAKEDGYDAWFAYWGQGTLVTVSS
VL: DIQMTQSPSSLSASVGDRVTITCRSSQSILHSNGNTYLEWYQQKPGKAPKLLIYKVSNRFSGVPSRFSGSGSGTDFTLTISSLQPEDFATYYCFQGSHVPFTFGQGTKLEIKR
notes: humanized, human IgG1 kappa
- Kd [2]: 0.205 nM
- koff [2]: 0.000175 s⁻¹
- kon [2]: 853000 M⁻¹ s⁻¹

B6: 7G6-HCzu12-LCzu11 (antibody, human IgG1, kappa)
heavy: not shown
light: DIQMTQSPSSLSASVGDRVTITCRSSQSILHSNGNTYLEWYQQKPGKAPKLLIYKVSNRFSGVPSRFSGSGSGTDFTLTISSLQPEDFATYYCFQGSHVPFTFGQGTKLEIKRTVAAPSVFIFPPSDEQLKSGTASVVCLLNNFYPREAKVQWKVDNALQSGNSQESVTEQDSKDSTYSLSSTLTLSKADYEKHKVYACEVTHQGLSSPVTKSFNRGEC
notes: humanized, human IgG1 kappa
- Kd [2]: 0.132 nM
- koff [2]: 0.000181 s⁻¹
- kon [2]: 1.38e+06 M⁻¹ s⁻¹

B7: 7G6-HCzu12-LCzu12 (antibody, human IgG1, kappa)
heavy: not shown
light: DVQMTQSPSSLSASVGDRVTITCRSSQSILHSNGNTYLEWYQQKPGKAPKLLICKVSNRFSGVPSRFSGSGSGTDFTLTISSLQPEDFATYYCFQGSHVPFTFGQGTKLEIKRTVAAPSVFIFPPSDEQLKSGTASVVCLLNNFYPREAKVQWKVDNALQSGNSQESVTEQDSKDSTYSLSSTLTLSKADYEKHKVYACEVTHQGLSSPVTKSFNRGEC
notes: humanized, human IgG1 kappa
- Kd [2]: 0.129 nM and 0.0875 nM
- koff [2]: 0.000193 s⁻¹ and 0.000151 s⁻¹
- kon [2]: 1.49e+06 M⁻¹ s⁻¹ and 1.72e+06 M⁻¹ s⁻¹

B8: 7G6-HCzu12-LCzu13 (antibody, human IgG1, kappa)
heavy: not shown
light: DVQMTQSPSSLSASVGDRVTITCRSSQSILHSNGNTYLEWYQQKPGKAPKLLIYKVSNRFSGVPSRFSGSGSGTDFTLTISSLQPEDFATYYCFQGSHVPFTFGQGTKLEIKRTVAAPSVFIFPPSDEQLKSGTASVVCLLNNFYPREAKVQWKVDNALQSGNSQESVTEQDSKDSTYSLSSTLTLSKADYEKHKVYACEVTHQGLSSPVTKSFNRGEC
notes: humanized, human IgG1 kappa
- Kd [2]: 0.0888 nM
- koff [2]: 0.000124 s⁻¹
- kon [2]: 1.4e+06 M⁻¹ s⁻¹

B9: 7G6-HCzu12-LCzu14 (antibody, human IgG1, kappa)
heavy: not shown
light: DIQMTQSPSSLSASVGDRVTITCRSSQSILHSNGNTYLEWYQQKPGKAPKLLICKVSNRFSGVPSRFSGSGSGTDFTLTISSLQPEDFATYYCFQGSHVPFTFGQGTKLEIKRTVAAPSVFIFPPSDEQLKSGTASVVCLLNNFYPREAKVQWKVDNALQSGNSQESVTEQDSKDSTYSLSSTLTLSKADYEKHKVYACEVTHQGLSSPVTKSFNRGEC
notes: humanized, human IgG1 kappa
- Kd [2]: 0.0689 nM
- koff [2]: 0.000119 s⁻¹
- kon [2]: 1.73e+06 M⁻¹ s⁻¹

The remaining lines, values ahead:

- Kd [2]: 0.0959 nM
- koff [2]: 0.000141 s⁻¹
- kon [2]: 1.47e+06 M⁻¹ s⁻¹
B10: 7G6-HCzu12-LCzu15 (antibody, human IgG1, kappa, V domains shown)
VH: EVQLLESGGGLVQPGGSLRLSCAASGYTFTTYWITWVRQAPGKGLEWVGDIYPGSSICNYNEKFKSRFTISVDNSKSTAYLQMNSLRAEDTAVYYCAREDGYDAWFAYWGQGTLVTVSS
VL: DVQMTQSPSSLSASVGDRVTITCRSSQSILHSNGNTYLEWYQQKPGKAPKLLISKVSNRFSGVPSRFSGSGSGTDFTLTISSLQPEDFATYYCFQGSHVPFTFGQGTKLEIKR
notes: humanized, human IgG1 kappa

- Kd [2]: 0.099 nM
- koff [2]: 0.000148 s⁻¹
- kon [2]: 1.49e+06 M⁻¹ s⁻¹
B11: 7G6-HCzu12-LCzu16 (antibody, human IgG1, kappa, V domains shown)
VH: EVQLLESGGGLVQPGGSLRLSCAASGYTFTTYWITWVRQAPGKGLEWVGDIYPGSSICNYNEKFKSRFTISVDNSKSTAYLQMNSLRAEDTAVYYCAREDGYDAWFAYWGQGTLVTVSS
VL: DVQMTQSPSSLSASVGDRVTITCRSSQSIVHSNGNTYLEWYQQKPGKAPKLLISKVSNRFSGVPSRFSGSGSGTDFTLTISSLQPEDFATYYCFQGSHVPFTFGQGTKLEIKR
notes: humanized, human IgG1 kappa

- Kd [2]: 0.168 nM
- koff [2]: 0.000239 s⁻¹
- kon [2]: 1.42e+06 M⁻¹ s⁻¹
B12: 7G6-HCzu13-LCzu12 (antibody, human IgG1, kappa, V domains shown)
VH: EVQLLESGGGLVQPGGSLRLSCAASGYTFTTYWITWVRQAPGKGLEWVGDIYPGSSICNYADSVKGRFTISVDNSKSTAYLQMNSLRAEDTAVYYCAREDGYDAWFAYWGQGTLVTVSS
VL: DVQMTQSPSSLSASVGDRVTITCRSSQSILHSNGNTYLEWYQQKPGKAPKLLICKVSNRFSGVPSRFSGSGSGTDFTLTISSLQPEDFATYYCFQGSHVPFTFGQGTKLEIKR
notes: humanized, human IgG1 kappa

- Kd [2]: 0.133 nM
- koff [2]: 0.000194 s⁻¹
- kon [2]: 1.46e+06 M⁻¹ s⁻¹
B13: 7G6-HCzu14-LCzu12 (antibody, human IgG1, kappa, V domains shown)
VH: EVQLLESGGGLVQPGGSLRLSCAASGYTFTTYWITWVRQAPGKGLEWVGDIYPGSSICNYADKFKGRFTISVDNSKSTAYLQMNSLRAEDTAVYYCAREDGYDAWFAYWGQGTLVTVSS
VL: DVQMTQSPSSLSASVGDRVTITCRSSQSILHSNGNTYLEWYQQKPGKAPKLLICKVSNRFSGVPSRFSGSGSGTDFTLTISSLQPEDFATYYCFQGSHVPFTFGQGTKLEIKR
notes: humanized, human IgG1 kappa

- Kd [2]: 0.138 nM
- koff [2]: 0.000278 s⁻¹
- kon [2]: 2.02e+06 M⁻¹ s⁻¹
B14: 7G6-HCzu15-LCzu12 (antibody, human IgG1, kappa, V domains shown)
VH: EVQLLESGGGLVQPGGSLRLSCAASGYTFTTYWITWVRQAPGKGLEWVGDIYPGSSICNYNEKFKSRFTISVDNSKNTAYLQMNSLRAEDTAVYYCAREDGYDAWFAYWGQGTLVTVSS
VL: DVQMTQSPSSLSASVGDRVTITCRSSQSILHSNGNTYLEWYQQKPGKAPKLLICKVSNRFSGVPSRFSGSGSGTDFTLTISSLQPEDFATYYCFQGSHVPFTFGQGTKLEIKR
notes: humanized, human IgG1 kappa

- Kd [2]: 0.114 nM
- koff [2]: 0.000174 s⁻¹
- kon [2]: 1.53e+06 M⁻¹ s⁻¹
B15: 7G6-HCzu16-LCzu12 (antibody, human IgG1, kappa, V domains shown)
VH: EVQLLESGGGLVQPGGSLRLSCAASGYTFTTYWITWVRQAPGKGLEWVSDIYPGSSICNYNEKFKSRFTISVDNSKNTAYLQMNSLRAEDTAVYYCAREDGYDAWFAYWGQGTLVTVSS
VL: DVQMTQSPSSLSASVGDRVTITCRSSQSILHSNGNTYLEWYQQKPGKAPKLLICKVSNRFSGVPSRFSGSGSGTDFTLTISSLQPEDFATYYCFQGSHVPFTFGQGTKLEIKR
notes: humanized, human IgG1 kappa

- Kd [2]: 0.0815 nM
- koff [2]: 0.000128 s⁻¹
- kon [2]: 1.57e+06 M⁻¹ s⁻¹
B16: 7G6-HCzu18-LCzu12 (antibody, human IgG1, kappa, V domains shown)
VH: EVQLLESGGGLVQPGGSLRLSCAASGYTFTTYWITWVRQAPGKGLEWVSDIYPGSSICNYNEKFKSRFTISRDNSKNTLYLQMNSLRAEDTAVYYCAREDGYDAWFAYWGQGTLVTVSS
VL: DVQMTQSPSSLSASVGDRVTITCRSSQSILHSNGNTYLEWYQQKPGKAPKLLICKVSNRFSGVPSRFSGSGSGTDFTLTISSLQPEDFATYYCFQGSHVPFTFGQGTKLEIKR
notes: humanized, human IgG1 kappa
